Data as given in patent publication US20170029507A1 (IMAGINAB, published 2017).

B1: IAb_Mb2a_CD8 (other)
chain: EVQLVESGGGLVQPGGSLRLSCAASGFNIKDTYIHFVRQAPGKGLEWIGRIDPANDNTLYASKFQGKATISADTSKNTAYLQMNSLRAGDTAVYYCGRGYGYYVFDHWGQGTLVTVSSGSTSGGGSGGGSGGGGSSDVQITQSPSSLSASVGDRVTITCRTSRSISQYLAWYQQKPGKVPKLLIYSGSTLQSGVPSRFSGSGSGTDFTLTISSLQPEDVATYYCQQHNENPLTFGGGTKVEIKEPKSCDKTHTCPPCGGGSSGGGSGGQPREPQVYTLPPSRDELTKNQVSLTCLVKGFYPSDIAVEWESNGQPENNYKTTPPVLDSDGSFFLYSKLTVDKSRWQQGNVFSCSVMHEALHNHYTQKSLSLSPGK
notes: Tested as CHO-K1 transfection supernatant; also called variant 2a
B2: IAb_Mb2c_CD8 (other)
chain: QVQLVQSGAEVKKPGATVKISCKVSGFNIKDTYIHFVQQAPGKGLEWIGRIDPANDNTLYASKFQGKATITADTSTDTAYMELSSLRSGDTAVYYCGRGYGYYVFDHWGQGTLVTVSSGSTSGGGSGGGSGGGGSSDVQITQSPSSLSASVGDRVTITCRTSRSISQYLAWYQQKPGKVPKLLIYSGSTLQSGVPSRFSGSGSGTDFTLTISSLQPEDVATYYCQQHNENPLTFGGGTKVEIKEPKSCDKTHTCPPCGGGSSGGGSGGQPREPQVYTLPPSRDELTKNQVSLTCLVKGFYPSDIAVEWESNGQPENNYKTTPPVLDSDGSFFLYSKLTVDKSRWQQGNVFSCSVMHEALHNHYTQKSLSLSPGK
notes: Tested as CHO-K1 transfection supernatant; also called variant 2c

Columns and labels:
[1] = target: T1, purified recombinant human CD8 protein (human, UniProt P01732 22-182, limits assumed); experiment: ELISA, plate coated with rhCD8, transfection supernatant at 0.5 µg/ml and serially diluted, HRP goat anti-human IgG (Fc-specific), TMB, 405 nm
T1 construct: also called rhCD8; hCD8
T1 sequence (P01732 22-182 limits assumed): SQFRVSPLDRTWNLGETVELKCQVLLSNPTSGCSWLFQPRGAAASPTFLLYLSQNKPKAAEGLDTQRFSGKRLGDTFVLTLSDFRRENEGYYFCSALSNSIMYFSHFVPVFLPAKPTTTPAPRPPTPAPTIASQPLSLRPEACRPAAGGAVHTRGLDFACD
Experimental: (§1) The concentration of the variants UAb_Mb1b_CD8, and IAb_Mb1a_CD8 were normalized to […] the concentration of IAb_MB2a_CD8 (0.5 μg/ml) based on the quantitative ELISA.
(§2) 96 well plates were coated with rhCD8 antigen and incubated with supernatants obtained from the transient transfection. Binding was detected with HRP-conjugated goat anti-human (Fc-specific) IgG and TMB substrate. The absorbance measured at 405 nm. Dilutions were done in triplicate. Data is shown as mean of relative absorbance.

[2] = target: T1, purified recombinant human CD8 protein; experiment: ELISA, plate coated with rhCD8, transfection supernatant serially diluted from 0.5 µg/ml, HRP goat anti-human IgG (Fc-specific), TMB, 405 nm
Experimental: as §1, §2

Binder | EC50 (read off the curve) [1] [µg/mL] | EC50 (read off the curve) [2] [µg/mL]
B1 | ~0.02 | 
B2 |  | ~0.04
